Laboratory results published in US20130303393A1.

Molecular target: NlpA-80R(scFv)

B1: M18.1 Hum IgG (antibody, V domains shown)
VH: EVQLVESGGGLVQPGGSLRLSCADSGYAFNSSWMNWVRQAPGKGLEWVGRIYPGDGDSNYNGKFEGRAIISADKSSSTAYLQMNSLRAEDTAVYYCARSGLLRYAMDYWGQGTLVTVSS
VL: DIQMTQSPSSLSASVGDRVTVTCRASQGIRNYLNWYQQKPGKAPKFLIYYTSRLLPGVPSRFSGSGSGTDYTLTINSLEQEDIATYYCQQGNTPPWTFGQGTKVEIKR
Question: Which M (FL1-Height) does the source give for B1 here?
Answer: 4
